Target: His6-DDA1 (full-length human DDA1) (human, UniProt Q9BW61 1-102)
Experiment: crystal structure

- binding result: binds
B1: DCAF15_(split) (Strep II Avi-DCAF15 NTD residues 30-264 with Strep II Avi-DCAF15 CTD residues 383-600) (domain or fragment)
chain 1: GRRREHVLKQLERVKISGQLSPRLFRKLPPRVCVSLKNIVDEDFLYAGHIFLGFSKCGRYVLSYTSSSGDDDFSFYIYHLYWWEFNVHSKLKLVRQVRLFQDEEIYSDLYLTVCEWPSDASKVIVFGFNTRSANGMLMNMMMMSDENHRDIYVSTVAVPPPGRCAACQDASRAHPGDPNAQCLRHGFMLHTKYQVVYPFPTFQPAFQLKKDQVVLLNTSYSLVACAVSVHSAGDR
chain 2: EPGYVNYTKLYYVLESGEGTEPEDELEDDKISLPFVVTDLRGRNLRPMRERTAVQGQYLTVEQLTLDFEYVINEVIRHDATWGHQFCSFSDYDIVILEVCPETNQVLINIGLLLLAFPSPTEEGQLRPKTYHTSLKVAWDLNTGIFETVSVGDLTEVKGQTSGSVWSSYRKSCVDMVMKWLVPESSGRYVNRMTNEALHKGCSLKVLADSERYTWIVL

— publication PMC6917914 (Nature chemical biology, 2019)
